The record followed here is doi:10.1101/2022.08.07.503104, “A tripartite complex HIV-1 Tat-cyclophilin A-capsid protein enables Tat encapsidation that is required for HIV-1 infectivity” (bioRxiv, 2022).

For assay [1], the target named is T1, Recombinant human CypA (human, UniProt P62937 1-165, Monolith RED-NHS 2nd generation fluorescent label, in the MST experiments only).
T1 construct: extra N-terminal gly residue left after TEV cleavage; cyclophilin A (CypA), human; Unlabeled in SEC and SPR, labeled in MST; also called cyclophilin A; labeled CypA; source: E. coli BL21 λDE3, purified (Ni-NTA, TEV cleavage, second Ni-NTA); not shown: His6, N-terminal, cleaved
As to the kind of experiment: MST; fluorescently labeled CypA at 50 nM, partner titrated; where indicated CypA first mixed with 20 µM CA or 1 µM Tat; 20°C, 150 mM NaCl, 50 mM citrate, pH 7.3, 0.05% Tween. The note with it: both partners purified.

Assay [2] has as its target T1, Recombinant human CypA. The assay is described as follows: SPR; Tat immobilised on a CM5S chip by amine coupling (~11000 RU); CypA or equimolecular CypA/CA mix at 370-6000 nM, one cycle kinetic titration, or CA at 2 µM; 25°C, 20 mM phosphate, 30 mM citrate, pH 7, 150 mM NaCl, 0.05% P20; two state fitting model. Conditions: both partners purified. A general note: Surface plasmon resonance follows binding to a sensor surface in real time, without labels.

T1 sequence (P62937 other isoform, or with tags, fused parts or gaps): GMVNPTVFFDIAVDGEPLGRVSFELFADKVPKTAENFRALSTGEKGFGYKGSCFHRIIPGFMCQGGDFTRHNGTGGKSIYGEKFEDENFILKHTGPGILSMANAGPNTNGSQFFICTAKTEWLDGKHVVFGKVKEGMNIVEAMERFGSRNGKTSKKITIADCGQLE

B1: Recombinant Tat (86 residues, BH10 isolate) (natural protein)
chain: MEPVDPRLEPWKHPGSQPKTACTNCYCKKCCFHCQVCFITKALGISYGRKKRRQRRRPPQGSQTHQVSLSKQPTSQSRGDPTGPKE
notes: HIV-1 Tat, BH10 isolate, 86 residues; source: E. coli, purified (as Vendeville et al., 2004); lyophilized
What is called Kd is the free concentration of one partner at which half of the binding sites on the other are occupied at equilibrium, for simple one-to-one binding. In the case of B1, the Kd stood at 243 ± 23 nM in the assay with Recombinant human CypA [1] and 255 ± 10 nM with Recombinant human CypA [2].
